Molecular target: T1, SsoSSB1-114 (Sulfolobus solfataricus, UniProt Q97W73 1-114)
T1 sequence: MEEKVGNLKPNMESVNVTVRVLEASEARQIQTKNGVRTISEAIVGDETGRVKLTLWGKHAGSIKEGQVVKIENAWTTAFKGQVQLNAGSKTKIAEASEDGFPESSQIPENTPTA
Assay: ITC; 25 C; n = 1.009; Buffer A: 100 mM NaCl, 20 mM MES pH 6.5; ITC at 25 C (500 uM dA15 into 50 uM protein); NMR with 10% D2O at 25 and 50 C (SsoSSB12-114 at 25 C only)
Conditions: protein: recombinant; tags: C-terminal TEV-His6 vector; single strand

AAAAAAAAAAAAAAA (ssDNA) [dA(15)] gave a Kd of 1750 nM.

From PMC8954794, “NMR Structure and Biophysical Characterization of Thermophilic Single-Stranded DNA Binding Protein from Sulfolobus Solfataricus”
